Here are results for 3 molecules from publication PMC7282810, “Existence and functions of a kisspeptin neuropeptide signaling system in a non-chordate deuterostome species” (eLife, 2020).

In experiment [1] the test system is cultured oocytes of sea cucumber. Description: ERK1/2 phosphorylation (western blot) in cultured ovary / oocytes of sea cucumber. Format: cell-based, Apostichopus japonicus. Conditions: pep234 1.0 μM, 4-hr pre-treatment; DrKiss1-10 or AjKiss1b-10 administrated cells. How it is done:
To examine the phosphorylation of ERK, cells that expressed AjKissr1/2 or other GPR54s were incubated for the indicated times with different concentrations of kisspeptins. Subsequently, cells were lysed with lysis buffer (Beyotime) that contained protease inhibitor (Roche) at 4°C for 30 min on a rocker and then scraped. Proteins were then electrophoresed on a 10% SDS polyacrylamide gel and transferred to polyvinylidene difluoride (PVDF) membranes. Membranes were blocked with 5% skimmed milk, then probed with rabbit anti-phospho-ERK1/2(Thr^202/Tyr^204) antibody (1:2000; Cell Signaling Technology), followed by detection using HRP-conjugated goat anti-rabbit IgG (Beyotime). Blots were stripped and reprobed using anti-ERK1/2 antibody (1:2000; Cell Signaling Technology) as a control for protein loading.
(§1) For in vitro experiments, the ovary and respiratory tree tissues were cut into small pieces of approximately 1 mm^3 and cultured in Leibovitz L-15 medium (HyClone) supplemented with 12.0 g/L NaCl, 0.32 g/L KCl, 0.36 g/L CaCl2, 0.6 g/L Na2SO4, 2.4 g/L MgCl2, 0.6 g/L glucose at 18°C in a humidified incubator ([Wang et al., 2020]). For ERK1/2 phosphorylation or immunofluorescence assays, samples were evaluated or fixed after 2 hr of ligand/PBS administration, with a 4 hr pre-treatment of pep234/PBS.

For experiment [2] the test system is unchanged. Description: Immunofluorescence staining of p-ERK signal in cultured oocytes (confocal microscopy). As to conditions: 4-hr pre-treatment with pep234. The class given is cell-based, Apostichopus japonicus. As to the method:
Paraffin sections were baked at 60°C for 2–4 hr and placed in xylene for 15 min, twice. The slides were washed twice in 100% ethanol for 10 min each, then in 95% ethanol for 10 min, 85% ethanol for 5 min, 70% ethanol for 5 min, and 50% ethanol for 5 min, followed by washing with dH2O for 5 min, and finally washing with PBS for 5 min. Antigen unmasking was performed in sodium citrate buffer (pH 6) for 10 min at 97°C, and then cooled to room temperature. Endogenous peroxidases were blocked by 10 min incubation in 3.0% hydrogen peroxide. Nonspecific antigens were blocked by a 60 min incubation in 0.3% bovine serum albumin (BSA) in TBST. Slides were incubated with primary antibodies overnight after removing the blocking solution, followed by 2 hr incubation with fluorescein isothiocyanate (FITC)-conjugated secondary antibodies (FITC-labeled goat anti-rabbit IgG (H+L), Beyotime). […]
as §1

In experiment [3] the target is FLAG–AjKissR2 (Apostichopus japonicus). The experiment is described as follows: flow cytometry on cells; ligand competition: 1.0 uM FITC-AjKiss1a with unlabeled kisspeptins at the indicated concentrations on HEK293 cells expressing FLAG-AjKissR1 or FLAG-AjKissR2; on ice 60-90 min; PBS with 0.2% BSA; FITC fluorescence as percentage of total binding.
Experiment [4] has as its target T1, FLAG–AjKissR1 (Apostichopus japonicus).
T1 chain: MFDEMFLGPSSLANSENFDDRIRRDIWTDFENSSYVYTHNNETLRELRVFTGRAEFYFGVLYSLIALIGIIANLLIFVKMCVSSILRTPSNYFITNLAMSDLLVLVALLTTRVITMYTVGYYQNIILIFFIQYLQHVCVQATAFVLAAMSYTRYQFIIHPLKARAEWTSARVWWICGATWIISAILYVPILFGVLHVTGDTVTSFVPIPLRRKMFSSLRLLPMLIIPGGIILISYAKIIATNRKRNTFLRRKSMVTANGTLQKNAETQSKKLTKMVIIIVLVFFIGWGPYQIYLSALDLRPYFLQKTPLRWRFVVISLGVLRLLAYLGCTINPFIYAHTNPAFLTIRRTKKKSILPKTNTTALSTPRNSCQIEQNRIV
The experiment is described as follows: competition with 1.0 uM FITC-AjKiss1a.

For experiment [5], the target named is FLAG–AjKissR1 (Apostichopus japonicus). The experiment is described as follows: flow cytometry on cells; ligand competition: 1.0 uM FITC-AjKiss1a with unlabeled kisspeptins at the indicated concentrations on HEK293 cells expressing FLAG-AjKissR1 or FLAG-AjKissR2; on ice 60-90 min; PBS with 0.2% BSA; FITC fluorescence as percentage of total binding.
For experiment [6], the target named is T2, FLAG–AjKissR2 (Apostichopus japonicus).
T2 chain: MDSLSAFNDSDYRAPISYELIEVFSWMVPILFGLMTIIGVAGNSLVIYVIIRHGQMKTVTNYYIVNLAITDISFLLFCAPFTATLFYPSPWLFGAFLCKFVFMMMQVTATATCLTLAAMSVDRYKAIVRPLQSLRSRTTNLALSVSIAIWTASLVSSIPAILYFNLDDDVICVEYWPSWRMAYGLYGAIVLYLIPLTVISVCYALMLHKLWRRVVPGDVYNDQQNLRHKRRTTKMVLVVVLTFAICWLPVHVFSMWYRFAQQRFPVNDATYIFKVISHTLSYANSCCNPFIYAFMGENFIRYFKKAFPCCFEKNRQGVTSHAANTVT
The experiment is described as follows: competition with 1.0 uM FITC-AjKiss1a.

The target in experiment [7] is FLAG–AjKissR1 (Apostichopus japonicus).

Bridges are numbered along the chain shown (N, C = ends). Where no end group is shown, it is not given here. [ ]: non-standard residue; d: D form.

On to “Ac-[dA]NWNGFG[dW]RF-NH2 [pep234, vertebrate kisspeptin antagonist]”, for which, in experiment [1], the “Block of kisspeptin-induced ERK phosphorylation signal, western blot (in words)” value was “blocked”. In experiment [2], the “Inhibition of AjKiss1b-10-induced p-ERK signal in oocytes, confocal microscopy (in words)” value is “inhibition”.

B1: AjKiss1a (C-terminal amidated) (peptide)
peptide: AGSLDCLEASCEDVERRGRQPNRNAHYRTLPF-NH2
modifications: disulfide 6-11; N-terminus assumed
SMILES: CC(C)C[C@H](NC(=O)[C@H](CO)NC(=O)CNC(=O)[C@H](C)N)C(=O)N[C@@H](CC(=O)O)C(=O)N[C@H]1CSSC[C@@H](C(=O)N[C@@H](CCC(=O)O)C(=O)N[C@@H](CC(=O)O)C(=O)N[C@H](C(=O)N[C@@H](CCC(=O)O)C(=O)N[C@@H](CCCNC(=N)N)C(=O)N[C@@H](CCCNC(=N)N)C(=O)NCC(=O)N[C@@H](CCCNC(=N)N)C(=O)N[C@@H](CCC(N)=O)C(=O)N2CCC[C@H]2C(=O)N[C@@H](CC(N)=O)C(=O)N[C@@H](CCCNC(=N)N)C(=O)N[C@@H](CC(N)=O)C(=O)N[C@@H](C)C(=O)N[C@@H](Cc2c[nH]cn2)C(=O)N[C@@H](Cc2ccc(O)cc2)C(=O)N[C@@H](CCCNC(=N)N)C(=O)N[C@H](C(=O)N[C@@H](CC(C)C)C(=O)N2CCC[C@H]2C(=O)N[C@@H](Cc2ccccc2)C(N)=O)[C@@H](C)O)C(C)C)NC(=O)[C@H](CO)NC(=O)[C@H](C)NC(=O)[C@H](CCC(=O)O)NC(=O)[C@H](CC(C)C)NC1=O
With B1, the results for the IC50 in experiment [3] and in experiment [4] were 0.0952 µM and 0.568 µM, respectively.
With SAVKNKNKSRARPPLLPF-NH2 [AjKiss1b (C-terminal amidated)], the IC50 turned out to be 0.353 µM in experiment [5] and 1.25 µM in experiment [6]. In experiment [7], the EC50 of intracellular Ca2+ mobilization (Fura-2/AM) in HEK293 cells expressing FLAG-AjKissR1 is 0.00806 µM.
